# From patent US20220111034A1, “VIRUS COMPOSITIONS” (priority 2019, published 2022)
# What was measured:
# [1] = target: human JAM-A expressed on the surface of transduced Lec2 or CHO cells (Lec2-JAM-A, CHO-JAM-A) (human) (UniProt Q9Y624); assay: FD-based AFM on neuraminidase-treated Lec2-JAM-A cells after injection of Neu5Ac, against before injection
# [2] = target: human JAM-A expressed on the surface of transduced Lec2 or CHO cells (Lec2-JAM-A, CHO-JAM-A) (human) (UniProt Q9Y624); assay: FD-based AFM on Lec2-JAM-A cells, after injection of 1 mM LNnT
# [3] = target: His6-tagged JAM-A (Bio-Connect Life Science), immobilized on NTA-Ni2+ surfaces or biosensors; assay: AFM dynamic force spectroscopy, Bell-Evans fit, JAM-A model surface
# [4] = target: human JAM-A expressed on the surface of transduced Lec2 or CHO cells (Lec2-JAM-A, CHO-JAM-A) (human) (UniProt Q9Y624); assay: FD-based AFM on Lec2-JAM-A cells, before injection of 1 mM LSTa
# [5] = target: His6-tagged JAM-A (Bio-Connect Life Science), immobilized on NTA-Ni2+ surfaces or biosensors; assay: single-virus AFM force spectroscopy, virion on tip, His6-JAM-A model surface
# [6] = target: human JAM-A expressed on the surface of transduced Lec2 or CHO cells (Lec2-JAM-A, CHO-JAM-A) (human) (UniProt Q9Y624); assay: FD-based AFM on Lec2-JAM-A cells, after injection of 1 mM LSTa
# [7] = target: human JAM-A expressed on the surface of transduced Lec2 or CHO cells (Lec2-JAM-A, CHO-JAM-A) (human) (UniProt Q9Y624); assay: FD-based AFM on Lec2-JAM-A cells, before injection of 1 mM LNnT
# [8] = target: human JAM-A expressed on the surface of transduced Lec2 or CHO cells (Lec2-JAM-A, CHO-JAM-A) (human) (UniProt Q9Y624); assay: FD-based AFM adhesion mapping on living Lec2-JAM-A cells
# [9] = target: human JAM-A expressed on the surface of transduced Lec2 or CHO cells (Lec2-JAM-A, CHO-JAM-A) (human) (UniProt Q9Y624); assay: FD-based AFM on Lec2-JAM-A cells, after injection of 1 mM Neu5Ac
# [10] = target: human JAM-A expressed on the surface of transduced Lec2 or CHO cells (Lec2-JAM-A, CHO-JAM-A) (human) (UniProt Q9Y624); assay: FD-based AFM on Lec2-JAM-A cells, before injection of 1 mM Neu5Ac
# [11] = target: His6-tagged JAM-A (Bio-Connect Life Science), immobilized on NTA-Ni2+ surfaces or biosensors; assay: AFM force spectroscopy on JAM-A model surface after injection of 1 mM Neu5Ac or LSTa
# human JAM-A expressed on the surface of transduced Lec2 or CHO cells (Lec2-JAM-A, CHO-JAM-A) (human), sequence (Q9Y624 28-299): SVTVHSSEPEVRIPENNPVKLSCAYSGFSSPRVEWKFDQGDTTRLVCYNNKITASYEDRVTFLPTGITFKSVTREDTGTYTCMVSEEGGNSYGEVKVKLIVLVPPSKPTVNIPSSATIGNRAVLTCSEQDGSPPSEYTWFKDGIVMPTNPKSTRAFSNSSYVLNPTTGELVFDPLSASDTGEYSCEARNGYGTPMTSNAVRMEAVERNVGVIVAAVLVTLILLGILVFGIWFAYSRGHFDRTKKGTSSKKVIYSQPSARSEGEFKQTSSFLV
substance,measurement,setting,value
"T3SA+ reovirus virion (wild-type strain type 3 Dearing, T3D), binding through its outer-capsid attachment protein sigma-1 (σ1) (from UniProt P03528 1-455)",increase in binding,[1],20%
same,binding frequency,[2],3.9%
same,koff,[3],0.04 s⁻¹
same,xu (distance to the transition state),[3],0.71 nm
same,binding frequency,[4],3.8%
same,specific binding force,[5],20 to 130 pN
same,binding frequency,[6],4.8%
same,binding frequency,[7],3.8%
same,binding force (rupture force),[8],50 to 400 pN
same,density of adhesion events (binding frequency),[8],3.5%
same,binding frequency,[9],4.9%
same,binding frequency,[10],3.9%
same,overall binding force,[11],< 400 pN
"T3SA- reovirus virion (T3D derivative carrying a point mutation in sigma-1, T3D-σ1R202W) (from UniProt P03528 1-455)",koff,[3],0.05 s⁻¹
same,xu (distance to the transition state),[3],0.48 nm
same,specific binding force,[5],20 to 130 pN
same,frequency of adhesion events (binding frequency),[8],4%
